From patent US10196447B2, “Anti-vascular endothelial growth factor receptor 2 (VEGFR2) antibody and methods of use thereof for detecting VEGFR2 and for inhibiting tumor growth, tumor angiogenesis and/or inducing cancer cell cytotoxicity” (Academia Sinica, priority 2015, dated 2019) come the findings set out here.

One data set has as its target murine VEGFR2 protein (Mus musculus, UniProt P35918, DEL223-227). Description: Cross-reactivity with murine VEGFR2. The format is binding.
The next data set relates to PC-3 xenografts. Description: PC-3 human prostate cancer xenograft model. It is filed as in vivo, NOD/SCID mice. The protocol: Procedures involving animals and their care were conducted according to the guidelines of the Academia Sinica Institutional Animal Care and Utilization Committee in compliance with national and international laws and policies. Non-obese diabetic-severe combined immunodeficiency (NOD/SCID) mice were purchased from the National Laboratory Animal Center (Taiwan). The human prostate cancer xenograft tumor model was developed by subcutaneously injecting 2×10^6 PC-3 cells into the dorsal flank of a six-week old male mouse. Animals were monitored daily for general health, and body weights were measured twice weekly. Tumor size was measured with slide calipers and calculated as length×width^2×0.52. […] An antibody dose of 20 mg/kg was injected twice a week for four weeks. For combination therapy, docetaxel (ScinoPharm Taiwan) was also intravenously administered at a dose of 5 mg/kg once a week for three weeks. At the end of the experiment, tumor tissue and visceral organs were removed and fixed for histological analysis.
For tumor blood vessel studies, samples were fixed in OCT. Frozen blocks were cut into 50 μm sections, and frozen tumor tissue sections were fixed with 1% paraformaldehyde, permeabilized with 0.1% TRITON™-X 100, blocked with normal horse serum (Vector), and then incubated for 1 hour at room temperature (RT) with a 1:100 dilution of the primary antibody (rat anti-mouse CD31 (PECAM-1); BD Bioscience). Subsequently, the tissue sections were incubated with Alexa 549-conjugated goat anti-rat antibody (Invitrogen) at room temperature for 1 hour. Nuclei were stained with DAPI, and sections were then mounted with fluorescent mounting solution. Immunofluorescent images were acquired using a Zeiss Axiovert 200M microscope. Positive areas of CD31 endothelial cells were quantified by pixel area counting and normalized with DAPI staining using ImageJ software under low power magnification.
The frozen tumor tissue sections were fixed with 1% paratbrmaldehyde and permeabilized with 0.1% TRITON™-X 100, before being incubated with terminal deoxynucleotidyltransferase-mediated dUTP nick end labeling reaction mixture (Roche Diagnostics) at 37° C. for 1 hour. After washing three times with PBS, the slides were incubated with FITC-anti-DIG antibody (1:2000) and DAPI (1:500). Slides were mounted with mounting solution and visualized under a fluorescent microscope. Slides were independently examined by three individuals. Areas with TUNEL-positive cells were quantified by pixel area counting, and normalized to DAPI staining using ImageJ software.

Data set [1] has as its system HL-60 leukemia xenografts. Description: HL-60 leukemia xenograft model. It is filed as in vivo, NSG mice. As to the method:
For systemic leukemia engraftment studies, NOD/SCID/IL2Rγ−/− (NSG) mice were obtained from the Animal Center of the Institute of Cellular and Organismic Biology, Academia Sinica. Six-week old females were intravenously injected with 5×10^6 HL-60 cells through the tail vein. Animals were monitored daily for general health, and body weights were measured twice weekly. […] Mice were observed daily for signs of toxicity, and the survival times were recorded. At the end-point of treatment, the visceral organs of each mouse were removed and fixed for further histological examination.
Tumors and indicated organs were dissected from mice and fixed in 4% paraformaldehyde overnight. Fixation and processing of specimens were performed in accordance with standard procedures. The specimens were embedded in paraffin and cut into […] sections. Rehydrated paraffin-embedded tissue sections were stained with Mayer's hematoxylin solution (Wako) for 5 minutes and washed with water for 1-2 minutes. The slides were then stained with eosin solution (Wako) for 10 minutes. Tissues were visualized with Tissue Gnostics microscopes.

A further data set concerns VEGFR2 signaling pathway. Description: Western blot of VEGF-A-induced phosphorylation in HUVECs. It is filed as cell-based, human. The note with it: 100 nM antibody. The text has this: Western blots were pertbrmed using standard protocols, as previously described. The primary antibodies were purchased from Cell Signaling Technology and used at a 1,000-fold dilution for protein detection; the antibodies used are as follows: anti-VEGFR2 (clone 55B11), anti-phospho-VEGFR2 (Tyr1175; clone 19A10), anti-FAK, anti-phospho-FAK (Tyr397; cloneD20B1), anti-p42/44 MAPK, anti-phospho-p42/44 MAPK (Thr202/Tyr204; cloneD13.14.4E), anti-Akt, and anti-phospho-Akt (Ser473).
For orientation: Immunoblotting shows a protein as a band on a membrane.

Data set [2] relates to VEGFR2 on the cell surface of HUVEC. Description: Flow cytometry binding to HUVECs. The format is cell-based, human. The note with it: FACS; 1×10^10 cfu. The protocol:
About 1×10^4 HUVEC were incubated with the selected anti-VEGFR2 phage clones at 4° C. for 1 hour in FACS buffer (PBS containing 1% fetal bovine serum). After the cells were washed with FACS buffer, they were first incubated with mouse anti-M13 phage Ab for 1 hr at 4° C., and then with R-phycoerythrin-conjugated goat anti-mouse IgG (Jackson Immuno Research) for 30 min at 4° C. Flow cytometry was performed with a FACSCantoII (BD), and emission fluorescence intensity was measured with FACS Diva software (BD) to quantitatively compare binding affinities.
(In general: Flow cytometry measures light scatter and fluorescence of single cells or particles in a stream.)

The subject of a further data set is Met-Fc. Description: Phage clone ELISA on control protein. The format is binding. As to the method: (§1) The selected phages were further examined by ELISA screening. The 96-well plates were coated with 1 μg/ml of VEGFR2-Fc, Met-Fc (R&D), or BSA (Sigma) protein in 0.1 M sodium bicarbonate overnight at 4° C. After blocking with 1% BSA in PBS (w/v) for 2 hr at room temperature, 70-randomly selected phage clones were added to the plates at a 1:2 dilution in 1% BSA, and incubated for 1 hr at room temperature. Following washes with PBST, the plates were incubated with a 1:2000 dilution of horseradish peroxidase (HRP)-conjugated mouse anti-M13 phage antibody (GE) for 1 hr. After washing with PBST, the colorimetric reaction was developed with the peroxidase substrate ortho-phenylenediamine (OPD; Sigma) plus H2O2 for 15 min, and then terminated by the addition of 3 N HCl. The absorbance at 490 nm was determined using a microplate reader (SpectraMax, Molecular Devices). Plasmid DNA of positive clones were isolated and sequenced using the pCANTAB5 sequencing primer set.

Data set [3] addresses T1, VEGFR2-Fc (Homo sapiens, UniProt P35968).
T1 construct: purchased R&D Systems
Description: Screening of anti-VEGFR2 phage clones by ELISA. The format is binding. The note with it: 1×10^9 cfu phage titer. As to the method:
as §1
For orientation: An ELISA detects its analyte on a solid surface through an enzyme-linked reagent.

For data set [4], the target named is T1, VEGFR2-Fc. Description: ELISA binding of R2S12 and R2S12-AF scFv to VEGFR2-Fc (affinity maturation). The protocol: (A) Affinity maturation for R2S12. […] Subsequently, the beads were washed four times with PBS containing 1% TWEEN™ 20. After four rounds of biopanning, the recovery rate of the phages was increased by 929-fold over that of the first round. (B) Comparison of the binding activity of the indicated concentrations of R2S12 and R2S12-AF scFv to VEGFR2-Fc protein, as assayed by ELISA. Error bar, SE.
Affinity maturation was performed as previously described. […] This synthetic library was used to perform biopanning for VEGFR2-Fc-immobilized DYNABEADS®. After four to five rounds of stringent in vitro biopanning, positive clones were screened and identified by ELISA.

[5] abbreviates: 20 mg/kg i.v. twice weekly from day 3.

T1 sequence (P35968 with tags, fused parts or gaps limits assumed): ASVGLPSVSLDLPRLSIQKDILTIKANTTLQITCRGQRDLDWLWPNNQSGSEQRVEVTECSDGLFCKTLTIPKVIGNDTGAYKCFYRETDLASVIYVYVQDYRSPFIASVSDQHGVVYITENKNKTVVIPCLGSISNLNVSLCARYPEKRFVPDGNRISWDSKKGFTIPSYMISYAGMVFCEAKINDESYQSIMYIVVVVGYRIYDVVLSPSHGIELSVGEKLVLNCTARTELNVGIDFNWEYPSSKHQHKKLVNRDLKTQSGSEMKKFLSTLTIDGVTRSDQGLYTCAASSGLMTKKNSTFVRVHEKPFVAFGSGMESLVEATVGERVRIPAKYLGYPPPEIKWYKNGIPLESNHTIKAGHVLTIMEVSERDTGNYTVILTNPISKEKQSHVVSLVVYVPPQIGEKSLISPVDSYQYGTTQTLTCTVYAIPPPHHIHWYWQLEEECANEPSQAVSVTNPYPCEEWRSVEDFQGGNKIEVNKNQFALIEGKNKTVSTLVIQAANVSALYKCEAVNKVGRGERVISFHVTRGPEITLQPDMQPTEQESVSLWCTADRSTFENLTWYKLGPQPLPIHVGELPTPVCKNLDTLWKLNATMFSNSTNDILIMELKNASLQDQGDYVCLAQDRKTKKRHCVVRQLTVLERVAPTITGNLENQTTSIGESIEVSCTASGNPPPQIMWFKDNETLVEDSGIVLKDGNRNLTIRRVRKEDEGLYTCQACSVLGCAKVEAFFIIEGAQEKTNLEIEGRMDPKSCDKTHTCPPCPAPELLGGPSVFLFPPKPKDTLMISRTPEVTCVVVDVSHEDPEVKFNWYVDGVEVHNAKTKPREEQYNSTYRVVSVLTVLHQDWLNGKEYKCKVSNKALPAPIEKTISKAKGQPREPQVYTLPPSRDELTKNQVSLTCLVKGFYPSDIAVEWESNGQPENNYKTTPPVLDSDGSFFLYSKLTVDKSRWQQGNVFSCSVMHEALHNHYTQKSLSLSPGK
Sequence of murine VEGFR2 protein (P35918 with tags, fused parts or gaps DEL223-227): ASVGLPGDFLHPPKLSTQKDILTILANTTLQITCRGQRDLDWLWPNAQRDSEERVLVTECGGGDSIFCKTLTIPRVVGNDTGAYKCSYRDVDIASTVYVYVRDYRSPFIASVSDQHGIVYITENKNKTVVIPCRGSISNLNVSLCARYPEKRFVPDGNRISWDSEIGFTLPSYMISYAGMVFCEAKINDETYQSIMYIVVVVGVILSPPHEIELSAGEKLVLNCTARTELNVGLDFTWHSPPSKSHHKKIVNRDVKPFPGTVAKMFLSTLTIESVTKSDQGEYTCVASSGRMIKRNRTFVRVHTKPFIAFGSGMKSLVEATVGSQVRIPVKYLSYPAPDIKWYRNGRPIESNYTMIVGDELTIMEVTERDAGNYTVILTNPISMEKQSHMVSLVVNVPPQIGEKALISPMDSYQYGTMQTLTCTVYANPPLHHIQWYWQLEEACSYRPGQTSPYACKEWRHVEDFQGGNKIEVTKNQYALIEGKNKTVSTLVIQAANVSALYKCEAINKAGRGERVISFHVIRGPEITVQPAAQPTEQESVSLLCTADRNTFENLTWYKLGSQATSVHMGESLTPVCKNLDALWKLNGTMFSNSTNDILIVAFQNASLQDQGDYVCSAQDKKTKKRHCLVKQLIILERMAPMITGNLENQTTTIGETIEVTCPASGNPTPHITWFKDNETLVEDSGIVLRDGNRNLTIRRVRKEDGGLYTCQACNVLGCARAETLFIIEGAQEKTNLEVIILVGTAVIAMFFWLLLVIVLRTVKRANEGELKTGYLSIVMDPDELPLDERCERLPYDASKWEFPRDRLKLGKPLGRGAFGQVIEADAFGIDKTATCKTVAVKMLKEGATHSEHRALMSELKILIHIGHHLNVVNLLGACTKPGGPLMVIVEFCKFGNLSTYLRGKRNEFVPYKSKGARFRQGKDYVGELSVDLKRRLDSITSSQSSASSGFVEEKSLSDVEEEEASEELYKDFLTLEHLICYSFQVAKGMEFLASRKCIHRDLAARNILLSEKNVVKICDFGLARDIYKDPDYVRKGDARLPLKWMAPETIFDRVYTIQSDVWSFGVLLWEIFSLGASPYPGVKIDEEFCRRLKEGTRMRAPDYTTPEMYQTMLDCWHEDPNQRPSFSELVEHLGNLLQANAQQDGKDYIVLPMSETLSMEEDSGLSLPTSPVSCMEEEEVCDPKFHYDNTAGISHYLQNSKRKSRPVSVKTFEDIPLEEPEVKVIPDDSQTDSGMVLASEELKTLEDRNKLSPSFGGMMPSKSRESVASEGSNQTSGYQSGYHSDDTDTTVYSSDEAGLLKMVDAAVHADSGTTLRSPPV

Take “IMC-1121B: FDA-approved anti-VEGFR2 human antibody (Ramucirumab), expressed by the applicant as human IgG1 [reference compound]”: in the data set with murine VEGFR2 protein, the “cross-reaction / binding to murine VEGFR2” value is listed as “not”. Besides, in the data set with PC-3 xenografts (by day 38, antibody 20 mg/kg i.v. twice a week, docetaxel 5 mg/kg i.v. once a week), the tumor growth reduction came out at 45%. The “changes in body weight during the treatment period” value with PC-3 xenografts (compared to the NHIgG group or docetaxel alone) was “no significant changes”. The “docetaxel-induced toxicity (body weight as surrogate)” value in the data set on PC-3 xenografts (in combination with docetaxel) is recorded as “do not enhance”. In data set [1] (setting [5]), the median survival is reported as 43 days and the survival time turned out to be 56 days. In addition, the “lymph nodes with leukemia infiltration” value in data set [1] (n=9 per group) is “five of nine”. In addition, the FAK phosphorylation result in the data set with VEGFR2 signaling pathway is “only marginally reduced”.

B1: R2PC12: phage-displayed human scFv clone binding VEGFR2; VH CDR1-3 SEQ ID NO: 6-8, VL CDR1/CDR3 SEQ ID NO: 9, 10 (antibody, V domains shown)
VH: QVNLRESGGGLVKPGGSLRLSCAASGFTFGSYTMNWVRQAPGKGLEWVASITSGSSYIFYTDSVKGRFTISRDNSRSSLFLQMNSLRAEDTAIYYCARGSASAFDIWGQGTMVTVSS
VL: DIQMTQSPSSLSASVGDRVTITCKASDDIINYLNWYQQKPGEAPKLLIYDASILETGVPSRFSGSGSGTDFTFTISSLQPEDIATYYCQQYDILPLTFGGGTKLEIK
With B1, in data set [2], the “binding of phage clones to VEGFR2 on HUVEC cell surface” value is listed as “greatest reactivity”. In addition, the “binding of phage clones to c-Met-Fc control protein” value with Met-Fc was “not”. Moreover, in the data set with VEGFR2-Fc [3], the “binding of phage clones to VEGFR2-Fc” value was “bind highly”.

B2: R2S12AF: affinity-matured scFv clone of R2S12; VH SEQ ID NO: 76, VL SEQ ID NO: 78, VL-CDR3 QQLDDIPIT (antibody, V domains shown)
VH: QVNLRESGGGLVKPGGSLRLSCAASGFTFGSYTMNWVRQAPGKGLEWVASITSGSSYIFYTDSVKGRFTISRDNSRSSLFLQMNSLRAEDTAIYYCARGSASAFDIWGQGTMVTVSS
VL: DIQMTQSPSSLSASVGDRVTITCKASDDIINYLNWYQQKPGEAPKLLIYDASILETGVPSRFSGSGSGTDFTFTISSLQPEDIATYYCQQLDDIPITFGGGTKLEIK
modifications: scFv linker; VH region of R2S12 or R2S12-AF; VL region of R2S12AF
With B2, in the data set with VEGFR2-Fc [4], the “binding activity to VEGFR2-Fc compared with parental clone R2S12” value is “superior binding activity”.
